Laboratory results from article PMC4427307.

Target: human insulin (human)
Assay: BLI; Octet Red, 96-well microplates, 25°C; biotinylated human insulin (12.5-50 μg/ml) immobilised on Streptavidin Biosensors; rSjLD1 (3.5-56 μg/ml) or rSjLD2 (1.78-56 μg/ml) in solution; kinetic buffer (1mM phosphate, 15mM NaCl, 0.1mg/ml BSA, 0.002% Tween-20); association 1000 s, dissociation …; double reference subtraction (BSA negative control and sensor)

How did the Kd turn out when “recombinant L1 subdomain of Schistosoma japonicum insulin receptor 2 (SjLD2), expressed in Drosophila S2 cells (domain or fragment)” was run?
Its Kd is 0.00878 µM.

“recombinant L1 subdomain of Schistosoma japonicum insulin receptor 1 (SjLD1), expressed in Drosophila S2 cells (domain or fragment)” was tested. Which Kd did it give?
The Kd was 0.0644 µM.
